Source: patent publication US20250304693A1

What was measured:
[1] = molecular target: human BTLA (B- and T-lymphocyte attenuator) on cells (human) (UniProt Q7Z6A9); test: cell-based or functional assay
[2] = molecular target: human BTLA (B- and T-lymphocyte attenuator) on cells (human) (UniProt Q7Z6A9); test: FACS competition on HEK293T.hBTLA cells; competitor hrHVEM-His-DL650
[3] = molecular target: human BTLA (B- and T-lymphocyte attenuator) on cells (human) (UniProt Q7Z6A9); test: FACS competition on HEK293.BTLA cells; competitor DL650-conjugated soluble HVEM
[4] = molecular target: cynomolgus BTLA on cells (cynomolgus); test: FACS on Expi293 cells overexpressing cynomolgus BTLA, AF647 anti-human IgG Fc detection
[5] = molecular target: human BTLA (B- and T-lymphocyte attenuator) on cells (human) (UniProt Q7Z6A9); test: FACS, primary human T cells, donor 149, AF647 anti-human IgG Fc secondary antibody
[6] = molecular target: human BTLA (B- and T-lymphocyte attenuator) on cells (human) (UniProt Q7Z6A9); test: FACS, primary human B cells, donor 1709, AF647 anti-human IgG Fc secondary antibody
[7] = molecular target: human BTLA (B- and T-lymphocyte attenuator) on cells (human) (UniProt Q7Z6A9); test: FACS on HEK293T.hBTLA cells, AF647 anti-human IgG Fc detection
[8] = molecular target: human BTLA (B- and T-lymphocyte attenuator) on cells (human) (UniProt Q7Z6A9); test: FACS, primary human T cells, donor 1709, AF647 anti-human IgG Fc secondary antibody
[9] = molecular target: human BTLA (B- and T-lymphocyte attenuator) on cells (human) (UniProt Q7Z6A9); test: FACS, primary human B cells, donor 149, AF647 anti-human IgG Fc secondary antibody
[10] = molecular target: recombinant human BTLA (human) (UniProt Q7Z6A9); test: ELISA on recombinant human BTLA
[11] = molecular target: human BTLA (B- and T-lymphocyte attenuator) on cells (human) (UniProt Q7Z6A9); test: FACS on HEK293 cells overexpressing human BTLA, AF647 anti-human IgG Fc detection
[12] = molecular target: cynomolgus BTLA on cells (cynomolgus); test: FACS on Expi293.cynoBTLA cells, AF647 anti-human IgG Fc detection

human BTLA (B- and T-lymphocyte attenuator) on cells (human), sequence (Q7Z6A9 31-289): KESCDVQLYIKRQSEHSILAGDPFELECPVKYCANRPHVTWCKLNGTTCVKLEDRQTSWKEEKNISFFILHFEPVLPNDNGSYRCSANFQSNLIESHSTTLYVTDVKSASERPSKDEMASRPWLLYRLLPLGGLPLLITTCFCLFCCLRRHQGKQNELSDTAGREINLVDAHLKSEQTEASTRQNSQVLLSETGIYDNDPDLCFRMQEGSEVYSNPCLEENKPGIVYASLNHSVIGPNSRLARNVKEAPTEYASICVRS
cynomolgus BTLA on cells (cynomolgus), sequence (chain, as listed by the source): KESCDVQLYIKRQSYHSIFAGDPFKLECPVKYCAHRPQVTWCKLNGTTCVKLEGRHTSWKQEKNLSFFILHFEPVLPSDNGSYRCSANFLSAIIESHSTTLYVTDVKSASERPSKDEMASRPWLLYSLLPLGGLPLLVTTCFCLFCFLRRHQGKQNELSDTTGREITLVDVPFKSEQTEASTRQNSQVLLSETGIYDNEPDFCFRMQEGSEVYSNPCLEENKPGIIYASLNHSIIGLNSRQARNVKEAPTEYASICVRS
recombinant human BTLA (human), sequence (Q7Z6A9 31-157 limits assumed): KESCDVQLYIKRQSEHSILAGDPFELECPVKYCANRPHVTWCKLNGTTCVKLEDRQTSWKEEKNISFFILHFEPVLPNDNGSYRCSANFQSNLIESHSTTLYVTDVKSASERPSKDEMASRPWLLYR

BTLA-HVEM blockade reporter assay, EC50 [1]: 10.4 nM | Reporter EC50 [1]: 13.1 nM | IC50 [2]: 1.47 nM | IC50 [3]: 4.32 nM | EC50 [4]: 0.561 nM | EC50 [5]: 1.3 nM | Emax(%) [5]: 97% | EC50 [6]: 0.19 nM | Emax(%) [6]: 82% | EC50 [7]: 5.97 nM | EC50 [8]: 1.1 nM | Emax(%) [8]: 56% | EC50 [9]: 0.19 nM | Emax(%) [9]: 73% | EC50 [10]: 2.43 nM | EC50 [11]: 0.804 nM | EC50 [12]: 5.25 nM
B1: JS004 (antibody, INN chains, looked up, V domains shown)
VH: QVQLVQSGAEVKKPGASVKLSCKASGYNFKHTYAHWVRQAPGQGLEWIGRIDPANGNTKYDPKFQGRATMTADTASNTAYLELSSLRSEDTAVYYCVADHYGSSLLDYWGQGTLVTVSS
VL: DVVMTQTPLSLSVTPGQPASISCKSSQSLLDSDGKTYLNWFQQRPGQSPRRLIYLVSKLDSGVPDRFSGSGSGTDFTLKISRVEAEDVGVYYCWQGTYFPYTFGQGTKLEIK
